Common to all, as to experiment: EC50 of free RNA motif oligo competing protein binding to immobilised probe
One data set addresses T1, AASS (UniProt Q9UDR5).
T1 sequence: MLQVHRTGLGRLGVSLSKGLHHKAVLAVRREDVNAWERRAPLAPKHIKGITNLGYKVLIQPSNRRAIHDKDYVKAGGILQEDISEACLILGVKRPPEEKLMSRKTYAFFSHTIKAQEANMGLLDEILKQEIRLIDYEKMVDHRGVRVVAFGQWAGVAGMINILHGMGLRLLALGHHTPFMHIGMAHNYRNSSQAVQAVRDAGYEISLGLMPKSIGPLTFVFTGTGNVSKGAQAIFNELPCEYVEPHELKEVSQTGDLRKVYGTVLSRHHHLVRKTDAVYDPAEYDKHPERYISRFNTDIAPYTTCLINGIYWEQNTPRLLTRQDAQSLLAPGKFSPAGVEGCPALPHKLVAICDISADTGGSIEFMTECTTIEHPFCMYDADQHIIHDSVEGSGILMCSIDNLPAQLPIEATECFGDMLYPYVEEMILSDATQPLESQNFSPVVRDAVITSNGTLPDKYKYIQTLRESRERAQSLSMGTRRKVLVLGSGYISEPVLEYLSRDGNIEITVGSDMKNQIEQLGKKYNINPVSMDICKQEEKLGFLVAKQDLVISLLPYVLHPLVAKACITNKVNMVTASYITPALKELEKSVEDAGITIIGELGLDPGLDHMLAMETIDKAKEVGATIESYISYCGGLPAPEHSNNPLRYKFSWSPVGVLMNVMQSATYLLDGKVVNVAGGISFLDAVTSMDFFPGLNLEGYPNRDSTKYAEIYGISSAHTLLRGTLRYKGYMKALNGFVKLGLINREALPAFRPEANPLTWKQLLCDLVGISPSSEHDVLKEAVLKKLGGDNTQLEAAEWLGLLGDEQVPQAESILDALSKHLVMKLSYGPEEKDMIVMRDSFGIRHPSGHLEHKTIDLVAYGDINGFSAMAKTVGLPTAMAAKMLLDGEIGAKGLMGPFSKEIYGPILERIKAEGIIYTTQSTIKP
An outline of the steps:
(§1)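 HEK293-FT lysate (2.5 mg protein/well) was pre-incubated 1 h at 4°C with free RNA oligos (0 nM to 30 μM), then 30 min at 4°C with the same 5′-amino-C6 oligos coupled to NHS-Sepharose beads. Bound proteins were quantified by label-free LC-MS/MS in three biological replicates and two independent experiments, and normalised to the water control. EC50 came from a four-parameter log-logistic fit; Kd is EC50 times a protein-dependent depletion factor.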

The next data set concerns the target T2, IFIT5 (UniProt Q13325).
T2 sequence: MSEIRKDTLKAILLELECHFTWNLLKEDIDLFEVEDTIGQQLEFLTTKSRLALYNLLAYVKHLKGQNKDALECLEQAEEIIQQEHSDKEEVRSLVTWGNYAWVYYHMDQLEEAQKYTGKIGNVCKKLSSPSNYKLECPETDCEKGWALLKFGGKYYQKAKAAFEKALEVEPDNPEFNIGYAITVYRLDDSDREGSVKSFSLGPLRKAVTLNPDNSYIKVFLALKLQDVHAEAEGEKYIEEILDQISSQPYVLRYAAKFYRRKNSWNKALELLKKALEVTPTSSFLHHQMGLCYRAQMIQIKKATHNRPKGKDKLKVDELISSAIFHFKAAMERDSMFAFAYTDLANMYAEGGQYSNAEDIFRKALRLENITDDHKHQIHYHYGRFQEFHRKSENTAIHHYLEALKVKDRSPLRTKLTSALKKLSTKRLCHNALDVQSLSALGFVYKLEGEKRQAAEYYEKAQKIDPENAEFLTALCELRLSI
An outline of the steps: as §1

The next data set has as its target SRSF10 (UniProt O75494). An outline of the steps: as §1
In the next data set the target is T3, ZRANB2 (UniProt O95218).
T3 sequence: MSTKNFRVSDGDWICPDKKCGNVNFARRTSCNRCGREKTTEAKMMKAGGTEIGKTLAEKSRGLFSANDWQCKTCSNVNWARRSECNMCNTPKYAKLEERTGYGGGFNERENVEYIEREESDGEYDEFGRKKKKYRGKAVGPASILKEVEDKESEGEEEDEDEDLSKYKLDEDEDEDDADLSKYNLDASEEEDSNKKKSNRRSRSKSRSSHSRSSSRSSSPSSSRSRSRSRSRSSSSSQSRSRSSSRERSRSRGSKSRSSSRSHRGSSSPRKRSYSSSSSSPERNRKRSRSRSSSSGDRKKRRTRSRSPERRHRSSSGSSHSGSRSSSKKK
An outline of the steps: as §1

The next data set has as its target MRPL50 (UniProt Q8N5N7). An outline of the steps: as §1

SRSF10, sequence (O75494 whole entry): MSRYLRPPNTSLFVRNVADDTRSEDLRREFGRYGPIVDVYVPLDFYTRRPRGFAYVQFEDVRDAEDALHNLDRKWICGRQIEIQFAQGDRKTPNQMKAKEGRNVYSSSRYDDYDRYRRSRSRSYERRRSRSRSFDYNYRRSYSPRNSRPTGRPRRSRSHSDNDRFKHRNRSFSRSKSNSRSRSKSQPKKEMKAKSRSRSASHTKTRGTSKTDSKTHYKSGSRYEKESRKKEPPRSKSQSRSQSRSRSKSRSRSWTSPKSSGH

For AAUAAA, the EC50 (as a rule, the concentration giving half of the maximal effect) with AASS was 9.78 µM; with IFIT5 it was 1190 nM; with SRSF10 it was 1150 nM; with ZRANB2, 1900 nM.

In the data set with MRPL50, CUGUCCU displayed an EC50 of 244 nM.

The record behind these values is the supplement of paper PMC6379048.
